Measurements published in patent US20260265361A1 (PHRONTLINE BIOPHARMA SUZHOU, published 2026).
Positions count from the first letter of the chain named.

B1: Fab-Fc/Fab-Fc bispecific antibody (zalutumumab anti-EGFR A half-antibody / pertuzumab anti-HER2 B half-antibody), M1 combination (K2/H2) (bispecific antibody)
heavy 1: not shown
light 1: not shown
heavy 2: EVQLVESGGGLVQPGGSLRLSCAASGFTFTDYTMDWVRQAPGKGLEWVADVNPNSGGSIYNQRFKGRFTLSVDRSKNTLYLQMNSLRAEDTAVYYCARNLGPSFYFDYWGQGTLVTVSSASTKGPSVFPLAPSSKSTSGGTAALGCLVKDYFPEPVTVSWNSGALTSGVHTFPAVLQSSGLYSLSSVVTVPSSSLGTQTYICNVNHKPSNTKVDKKVEPKSCDKTHTCPPCPAPELLGGPSVFLFPPKPKDTLMISRTPEVTCVVVDVSHEDPEVKFNWYVDGVEVHNAKTKPREEQYNSTYRVVSVLTVLHQDWLNGKEYKCKVSNKALPAPIEKTISKAKGQPREPQVYTLPPSREEMTKNQVSLSCAVKGFYPSDIAVEWESNGQPENNYKTTPPVLRSDGSFFLVSKLTVDKSRWQQGNVFSCSVMHEALHNHYTQKSLSLSPGK
light 2: not shown
notes: No linker named between Fab and Fc; also called M1 mutant combination
B2: Fab-Fc/Fab-Fc bispecific antibody (zalutumumab anti-EGFR A half-antibody / pertuzumab anti-HER2 B half-antibody), M3 combination (K2/H7) (bispecific antibody)
heavy 1: not shown
light 1: not shown
heavy 2: B1 heavy 2 with L353Y
light 2: not shown
notes: No linker named between Fab and Fc; also called M3 mutant combination
B3: Fab-Fc/Fab-Fc bispecific antibody (zalutumumab anti-EGFR A half-antibody / pertuzumab anti-HER2 B half-antibody), M2 combination (K0/H8) (bispecific antibody)
heavy 1: not shown
light 1: not shown
heavy 2: B1 heavy 2 with L353Y, R401D
light 2: not shown
notes: No linker named between Fab and Fc; also called M2 mutant combination

Molecular target: T1, Recombinant human EGFR protein (ACRO Biosystems, EGR-H5222) (human, UniProt P00533 25-645)
T1 construct: Bought protein
Assay: ELISA, plate coated with recombinant human EGFR at 1 µg/mL, HRP-labelled secondary antibody, OD450; EGFR panel, table under the curves (unit from the concentration axis)

Row | EC50 [mg/L] | Binder
1 | 0.017 | B1
2 | 0.0221 | B2
3 | 0.0206 | B3

Molecular target: T2, recombinant human FcRn (ACROBiosystems Cat FCM-H8286) (human, UniProt P55899 24-297; P61769 21-119)
T2 construct: also called human FcRn receptor
Assay: BLI (ForteBio Octet Red 96), human FcRn immobilised on SA sensors, pH 6.0 buffer, 100 nM antibody; FcRn table, column Kdis

Row | koff [s⁻¹] | Binder
4 | 0.0261 | B1
5 | 0.0274 | B2
6 | 0.0296 | B3

Molecular target: T3, recombinant human FcγRI protein (ACRO Biosystems, Cat. FCA-H52H1) (human, UniProt P12314 16-288, limits assumed)
T3 construct: also called human FcγRI receptor
T3 sequence (P12314 16-288 limits assumed): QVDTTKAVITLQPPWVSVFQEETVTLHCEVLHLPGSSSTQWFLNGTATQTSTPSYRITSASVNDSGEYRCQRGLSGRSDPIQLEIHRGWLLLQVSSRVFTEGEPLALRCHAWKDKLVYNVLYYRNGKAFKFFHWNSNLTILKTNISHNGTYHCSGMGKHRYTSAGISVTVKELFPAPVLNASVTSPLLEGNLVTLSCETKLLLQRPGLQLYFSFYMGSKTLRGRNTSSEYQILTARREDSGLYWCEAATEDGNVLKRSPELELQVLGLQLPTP
Assay: BLI (ForteBio Octet Red 96), human FcγRI immobilised on HIS1K sensors, 100 nM antibody; FcγRI table

Row | Kd [µM] | kon [M⁻¹ s⁻¹] | Binder
7 | 0.01 | 459000 | B1
8 | 0.0103 | 455000 | B2
9 | 0.01 | 452000 | B3

Molecular target: T2, recombinant human FcRn (ACROBiosystems …)
Assay: BLI (ForteBio Octet Red 96), human FcRn immobilised on SA sensors, pH 6.0 buffer, 100 nM antibody; FcRn table

Row | Kd [µM] | kon [M⁻¹ s⁻¹] | Binder
10 | 0.0144 | 1.82e+06 | B1
11 | 0.0177 | 1.55e+06 | B2
12 | 0.0176 | 1.69e+06 | B3

Molecular target: T3, recombinant human FcγRI protein (ACRO …)
Assay: BLI (ForteBio Octet Red 96), human FcγRI immobilised on HIS1K sensors, 100 nM antibody; FcγRI table, column Kdis

Row | koff [s⁻¹] | Binder
13 | 0.00461 | B1
14 | 0.00471 | B2
15 | 0.00453 | B3
